Measurements taken from US20050043510A1, “Affinity purification system using troponin molecules as affinity ligands” (priority 2003, published 2005).

Columns and labels:
[1] = target: rabbit skeletal muscle troponin C (Oryctolagus cuniculus, UniProt P02586); details: in the presence of calcium; Hanson Pierce et al. (1998); cited from earlier work
[2] = target: calmodulin (Homo sapiens, UniProt P0DP23); details: in the presence of calcium; Hanson Pierce et al. (1998); cited from earlier work
[3] = target: bovine serum albumin (Bos taurus, UniProt P02769); details: in the presence of calcium; Hanson Pierce et al. (1998); cited from earlier work
Sequence of bovine serum albumin (P02769 25-607): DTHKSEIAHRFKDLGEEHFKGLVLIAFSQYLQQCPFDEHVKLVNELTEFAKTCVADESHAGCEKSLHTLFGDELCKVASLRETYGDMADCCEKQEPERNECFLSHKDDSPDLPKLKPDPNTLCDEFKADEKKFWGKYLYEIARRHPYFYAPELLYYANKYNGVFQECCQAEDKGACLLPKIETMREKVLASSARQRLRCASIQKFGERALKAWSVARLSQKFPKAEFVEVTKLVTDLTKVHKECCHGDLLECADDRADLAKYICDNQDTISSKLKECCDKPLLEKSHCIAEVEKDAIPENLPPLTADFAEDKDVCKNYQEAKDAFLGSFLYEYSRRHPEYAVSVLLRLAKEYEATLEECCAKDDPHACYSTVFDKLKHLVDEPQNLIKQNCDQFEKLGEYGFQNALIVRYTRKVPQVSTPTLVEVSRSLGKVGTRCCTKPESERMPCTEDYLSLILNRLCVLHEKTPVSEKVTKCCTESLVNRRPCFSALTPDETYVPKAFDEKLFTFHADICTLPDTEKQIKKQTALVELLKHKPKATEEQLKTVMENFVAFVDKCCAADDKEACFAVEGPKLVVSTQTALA

[4] = test system: troponin C-tagged C-terminal truncated version of La/SSB (TnC-LaΔC)

Sequence of rabbit skeletal muscle troponin C (P02586 whole entry): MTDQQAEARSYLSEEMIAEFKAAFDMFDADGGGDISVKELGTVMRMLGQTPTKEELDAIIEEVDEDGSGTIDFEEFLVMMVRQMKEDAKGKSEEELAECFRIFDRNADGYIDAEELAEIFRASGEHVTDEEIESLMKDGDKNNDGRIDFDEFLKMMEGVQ

Substance	Calcium dependent binding [1]	Calcium dependent binding [2]	Calcium dependent binding [3]	thrombin proteolytic cleavage (SDS-PAGE) [4]
SRLDYLKSSLLHLGSR (SEQ ID NO:1) [Troponin C binding peptide, previously described (Hanson Pierce et al. 1998)]	demonstrated	not	not	
biotinylated thrombin (Thrombin Cleavage Capture Kit, Novagen)				apparent complete cleavage when 0.1 units of thrombin was used
